From publication PMC8136821

Target: H. pylori RNase R (HpRNase R), recombinant, His-tagged (H. pylori)
Experiment: AUC

Chain of H. pylori RNase R (HpRNase R), recombinant, His-tagged (H. pylori) (P56123 whole entry): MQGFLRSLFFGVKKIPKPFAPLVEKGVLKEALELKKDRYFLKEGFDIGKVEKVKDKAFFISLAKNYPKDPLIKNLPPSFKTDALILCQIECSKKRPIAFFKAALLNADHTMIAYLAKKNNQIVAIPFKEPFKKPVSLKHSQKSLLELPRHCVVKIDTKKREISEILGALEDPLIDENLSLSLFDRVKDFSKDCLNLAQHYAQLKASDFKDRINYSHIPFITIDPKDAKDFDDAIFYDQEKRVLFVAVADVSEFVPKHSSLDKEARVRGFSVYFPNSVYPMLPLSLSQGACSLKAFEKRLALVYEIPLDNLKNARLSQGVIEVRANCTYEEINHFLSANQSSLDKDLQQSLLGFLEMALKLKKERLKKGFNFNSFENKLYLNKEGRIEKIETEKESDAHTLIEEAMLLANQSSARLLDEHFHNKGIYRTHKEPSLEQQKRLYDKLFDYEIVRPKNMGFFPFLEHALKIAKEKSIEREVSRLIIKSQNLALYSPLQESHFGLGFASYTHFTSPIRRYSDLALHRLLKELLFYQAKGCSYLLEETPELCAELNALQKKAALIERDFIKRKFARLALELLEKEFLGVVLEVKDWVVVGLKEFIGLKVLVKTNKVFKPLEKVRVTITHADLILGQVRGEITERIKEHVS
Chain of RhpA DEAD-box RNA helicase of H. pylori, recombinant, His-tagged (enzyme) (B9XXL6 whole entry): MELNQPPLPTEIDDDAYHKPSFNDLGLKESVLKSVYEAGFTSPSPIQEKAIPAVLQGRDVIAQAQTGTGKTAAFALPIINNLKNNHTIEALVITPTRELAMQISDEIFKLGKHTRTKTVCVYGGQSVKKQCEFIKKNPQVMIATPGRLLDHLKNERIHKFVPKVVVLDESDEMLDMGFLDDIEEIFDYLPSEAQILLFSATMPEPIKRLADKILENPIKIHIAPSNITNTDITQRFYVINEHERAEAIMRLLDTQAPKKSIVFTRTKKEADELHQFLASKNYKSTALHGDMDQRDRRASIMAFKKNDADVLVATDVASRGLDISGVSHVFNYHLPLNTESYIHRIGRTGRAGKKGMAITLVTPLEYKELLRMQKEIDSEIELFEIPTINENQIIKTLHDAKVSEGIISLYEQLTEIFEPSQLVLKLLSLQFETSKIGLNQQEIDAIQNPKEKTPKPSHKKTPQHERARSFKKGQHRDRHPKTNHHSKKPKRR

## RhpA DEAD-box RNA helicase of H. pylori, recombinant, His-tagged (enzyme)
  stoichiometry N: 1
